According to patent publication US20170015708A1 (BIOKINE THERAPEUTICS, published 2017):

T1: IP-10 (human) (human, UniProt P02778 22-98)
T1 sequence (looked up): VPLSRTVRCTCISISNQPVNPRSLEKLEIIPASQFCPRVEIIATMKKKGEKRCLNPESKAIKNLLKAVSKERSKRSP

T2: RANTES (human) (human, UniProt P13501 24-91)
T2 sequence (looked up): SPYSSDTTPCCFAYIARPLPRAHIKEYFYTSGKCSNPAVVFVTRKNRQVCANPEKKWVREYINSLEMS

T3: I-TAC (human) (human, UniProt O14625 22-94)
T3 sequence (looked up): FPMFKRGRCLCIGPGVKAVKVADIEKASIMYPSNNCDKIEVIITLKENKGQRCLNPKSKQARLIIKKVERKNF

T4: MIG (human) (human, UniProt Q07325 23-125)
T4 sequence (looked up): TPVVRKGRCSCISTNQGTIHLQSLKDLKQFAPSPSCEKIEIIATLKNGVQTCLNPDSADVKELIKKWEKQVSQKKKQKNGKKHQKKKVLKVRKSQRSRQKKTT


Tests used:
Assay in all cases: cell-based or functional assay
IP-10 (human) = target: T1, IP-10 (human)
MCP-1 (human) = MCP-1 (human) (human, UniProt P13500 24-99)
Sequence of MCP-1 (human) (P13500 24-99 limits assumed): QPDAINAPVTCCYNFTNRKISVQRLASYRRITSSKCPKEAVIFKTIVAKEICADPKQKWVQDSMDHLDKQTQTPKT

Eotaxin (human) = Eotaxin (human) (human, UniProt P51671 24-97)
RANTES (human) = target: T2, RANTES (human)
I-TAC (human) = target: T3, I-TAC (human)
MIG (human) = target: T4, MIG (human)

Inhibition of chemokine-dependent T cell adhesion to VCAM-1 (++ = 100% inhibition) (IP-10 (human)) [% inhibition] | Inhibition of chemokine-dependent T cell adhesion to VCAM-1 (++ = 100% inhibition) (MCP-1 (human)) [% inhibition] | Inhibition of chemokine-dependent T cell adhesion to VCAM-1 (++ = 100% inhibition) (Eotaxin (human)) [% inhibition] | Inhibition of chemokine-dependent T cell adhesion to VCAM-1 (++ = 100% inhibition) (RANTES (human)) [% inhibition] | Inhibition of chemokine-dependent T cell adhesion to VCAM-1 (++ = 100% inhibition) (I-TAC (human)) [% inhibition] | Inhibition of chemokine-dependent T cell adhesion to VCAM-1 (++ = 100% inhibition) (MIG (human)) [% inhibition] | Binder
100 | 100 | 100 | 100 | 100 |  | SIPSHSIHSAKA [BKT-P2 peptide]
 | 100 |  | 100 | 100 | 100 | LDYPIPQTVLHH [BKT-P46 peptide]
